The target of one data set is AddANBN (Bacillus subtilis, UniProt P23478;P23477 1-1232;1-1166, D1172A;D961A). The data set can be described thus: EMSA.
In another data set the target is AddAB (Bacillus subtilis, UniProt P23478;P23477 1-1232;1-1166). In words: EMSA.

B1: Cy5Bind15 (dsDNA)
DNA 1: CCGCCTCTTGGCCGATTCA
DNA 2: TCGGCCAAGAGGCGGTTTG
As to B1, the binding result with AddANBN is “binds”.

B2: Bind15 (dsDNA)
DNA 1: CCGCCTCTTGGCCGATTCA
DNA 2: TCGGCCAAGAGGCGGTTTG
On to B2, for which the binding result in the data set with AddAB was “binds”.

The values above are taken from PMC3064778.
